# Reference: article PMC10319725, “A mechanical-coupling mechanism in OSCA/TMEM63 channel mechanosensitivity” (Nature Communications, 2023)
# B1: AtOSCA1.1-CGFP (natural protein, Arabidopsis thaliana)
# chain: MATLKDIGVSAGINILTAFIFFIIFAFLRLQPFNDRVYFSKWYLRGLRSSPASGGGFAGRFVNLELRSYLKFLHWMPEALKMPERELIDHAGLDSVVYLRIYWLGLKIFAPIAMLAWAVLVPVNWTNNELELAKHFKNVTSSDIDKLTISNIPEGSNRFWAHIIMAYAFTIWTCYMLMKEYETVANMRLQFLASEGRRPDQFTVLVRNVPPDPDETVSELVEHFFLVNHPDNYLTHQVVCNANKLADLVSKKTKLQNWLDYYQLKYTRNNSQIRPITKLGCLGLCGQKVDAIEHYIAEVDKTSKEIAEERENVVNDQKSVMPASFVSFKTRWAAAVCAQTTQTRNPTEWLTEWAAEPRDIYWPNLAIPYVSLTVRRLVMNVAFFFLTFFFIIPIAFVQSLATIEGIEKVAPFLKVIIEKDFIKSLIQGLLAGIALKLFLIFLPAILMTMSKFEGFTSVSFLERRSASRYYIFNLVNVFLGSVIAGAAFEQLNSFLNQSPNQIPKTIGMAIPMKATFFITYIMVDGWAGVAGEILMLKPLIIYHLKNAFLVKTEKDREEAMNPGSIGFNTGEPQIQLYFLLGLVYAPVTPMLLPFILVFFALAYVVYRHQIINVYNQEYESAAAFWPDVHGRVITALIISQLLLMGLLGTKHAASAAPFLIALPVITIGFHRFCKGRFEPAFVRYPLQEAMMKDTLERAREPNLNLKGYLQDAYIHPVFKGGDNDDDGDMIGKLENEVIIVPTKRQSRRNTPAPSRISGESSPSLAVINGKEV
# notes: AtOSCA1.1 from Arabidopsis thaliana, UniprotKB Q9XEA1; cDNA cloned into a C-terminally GFP-tagged BacMam vector; His8 and FLAG lie after GFP in the vector; also called Arabidopsis thaliana OSCA1.1; source: Expi293F, transfected, solubilised in LMNG-CHS, in cleared lysate; not shown: GFP, C-terminal, kept
# B2: AtOSCA1.1 in lipid nanodisc (natural protein, Arabidopsis thaliana)
# chain: B1 chain
# notes: AtOSCA1.1 from Arabidopsis thaliana, UniprotKB Q9XEA1; GFP removed by HRV3C protease; His8 and FLAG lie after GFP in the vector and were probably removed with it; Embedded in MSPE3D1 lecithin nanodiscs; also called extended state of AtOSCA1.1; not shown: GFP, C-terminal, cleaved
# B3: AtOSCA3.1 (natural protein, Arabidopsis thaliana)
# chain: MEFGSFLVSLGTSFVIFVILMLLFTWLSRKSGNAPIYYPNRILKGLEPWEGTSLTRNPFAWMREALTSSEQDVVNLSGVDTAVHFVFLSTVLGIFACSSLLLLPTLLPLAATDNNIKNTKNATDTTSKGTFSQLDNLSMANITKKSSRLWAFLGAVYWISLVTYFFLWKAYKHVSSLRAQALMSADVKPEQFAILVRDMPAPPDGQTQKEFIDSYFREIYPETFYRSLVATENSKVNKIWEKLEGYKKKLARAEAILAATNNRPTNKTGFCGLVGKQVDSIEYYTELINESVAKLETEQKAVLAEKQQTAAVVFFTTRVAAASAAQSLHCQMVDKWTVTEAPEPRQLLWQNLNIKLFSRIIRQYFIYFFVAVTILFYMIPIAFVSAITTLKNLQRIIPFIKPVVEITAIRTVLESFLPQIALIVFLAMLPKLLLFLSKAEGIPSQSHAIRAASGKYFYFSVFNVFIGVTLAGTLFNTVKDIAKNPKLDMIINLLATSLPKSATFFLTYVALKFFIGYGLELSRIIPLIIFHLKKKYLCKTEAEVKEAWYPGDLSYATRVPGDMLILTITFCYSVIAPLILIFGITYFGLGWLVLRNQALKVYVPSYESYGRMWPHIHQRILAALFLFQVVMFGYLGAKTFFYTALVIPLIITSLIFGYVCRQKFYGGFEHTALEVACRELKQSPDLEEIFRAYIPHSLSSHKPEEHEFKGAMSRYQDFNAIAGV
# notes: AtOSCA3.1 from Arabidopsis thaliana, UniprotKB Q9C8G5; also called contracted state of AtOSCA3.1; extended state of AtOSCA3.1; source: Expi293F infected by baculovirus, purified (DDM, TALON)
# Key:
# [1] = target: the molecule itself; experiment: SEC; fluorescence-detection SEC (FSEC) of detergent-solubilised Expi293F cells (1% LMNG, 0.1% CHS; also DDM or GDN), Superose 6 increase 5/150 in TBS (20 mM Tris pH 8.0, 150 mM NaCl) with 10 uM LMNG, GFP fluorescence detected
# [2] = target: the molecule itself; experiment: cryo-EM structure; purified AtOSCA1.1 reconstituted in MSPE3D1 lecithin nanodiscs, TBS
# [3] = target: the molecule itself; experiment: cryo-EM structure; purified AtOSCA3.1 in a detergent environment; two conformations (contracted, extended) in one data set
protein,measurement,setting,value
B1,stoichiometry N,[1],2
B2,stoichiometry N,[2],2
B3,stoichiometry N,[3],2
